Test results: publication PMC2191985 (The Journal of Experimental Medicine, 1995)
Each block holds one molecule with its values, some of them ahead of it.

Columns and labels:
[1] = molecular target: 10-kD NH2-terminal fragment of the invariant chain (Ii-p10) (mouse); experiment: SEC + co-IP
[2] = molecular target: the molecule itself; experiment: SEC + co-IP

stoichiometry N [1]: 3
Molecule: 10-kD NH2-terminal fragment of the invariant chain (Ii-p10) (domain or fragment)

B1: intact invariant (Ii) chain (natural protein, mouse, UniProt P04441-2 1-215, looked up)
chain: MDDQRDLISNHEQLPILGNRPREPERCSRGALYTGVSVLVALLLAGQATTAYFLYQQQGRLDKLTITSQNLQLESLRMKLPKSAKPVSQMRMATPLLMRPMSMDNMLLGPVKNVTKYGNMTQDHVMHLLTRSGPLEYPQLKGTFPENLKHLKNSMDGVNWKIFESWMKQWLLFEMSKNSLEEKKPTEAPPKEPLDMEDLSSGLGVTRQELGQVTL
stoichiometry N [2]: 3
